# Measured values published in the nanobody polyreactivity screen of Harvey et al. (2022).
# Test: yeast display, Sf9 membrane polyspecificity reagent, FACS + sequencing; frameworks hold sequencing errors
# In short: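 Sorting gates, low and high (top ~1%), were placed on anti-HA fluorescence to track expression and on streptavidin fluorescence to track reagent binding. A clone's polyreactivity label is taken from the gate it came out of. The reagent was 10% biotinylated, detergent-solubilized Sf9 membrane, applied for 1 hour at 4 °C to galactose-induced yeast display cells.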
row,Sequence,polyreactivity (PSR sort gate)
1,QVQLVESGGGLVQAGGSLRLSCAASGSTFYRNAMGWYRQAPGKERELVATISTGGVSTYYADSVKGRFTISRDNAKNTVYLQMNSLKPEDTAVYYCAKRTVYLSNLDYWGQGTQVTLSS,low polyreactivity
2,QVQLVESGGGLVQAGGSLRLSCAASGSTFYRNAMGWYRQARGKERELVAAISRGGSTYYADSVKGRFTISRDNAKNTVYLQMNSLKPEDTAVYYCNTDVNYAGYGWYYYWGQGTQVTVSS,high polyreactivity
3,QVQLVESGGGLVQAGGSLRLSCAASGSTFYRNVMGWYRQAPGKERELVAAISASGGSTYYADSVKGRFTISRDNAKNTVYLQMNSLKPEVTAVYYCAVDNRQYRYLYYYWGQGSQVTVSS,high polyreactivity
4,QVQLVESGGGLVQAGGSLRLSCAASGSTFYRYALGWYRQAPGKEREFVAAISRSGGSTNYADSVKGRFTISRDNAKNTVYLQMNSMKPEDTAVYYCAAKYSDYQYGRYYYWGQGTQVTVSS,high polyreactivity
5,QVQLVESGGGLVQAGGSLRLSCAASGSTFYRYAMGWYRQAPGKERELVAAISKRGGSTYYADSVKGRFTISRDNAKNTVYLQMNSLKPEDTAVYYCNAVGYKGTTYDYWGQGTQVTVSS,high polyreactivity
6,QVQLVESGGGLVQAGGSLRLSCAASGSTFYRYAMGWYRQAPGKERELVARIDWSDGSTNYADSVKGRFTISRDNAKNTVYLQMNSLKPEDTAVYYCAADTYSDTYDGEYEYWGQGTQVTVSS,low polyreactivity
7,QVQLVESGGGLVQAGGSLRLSCAASGSTFYRYAMGWYRQAPGNERELVAVLRYTSGRTYYADSVKGRFTISRDNAKYTVYLQMNSLKREDTAVYYCATDPYGTRGTDSRYNYWGQGIQVTVSS,high polyreactivity
8,QVQLVESGGGLVQAGGSLRLSCAASGSTFYSNAMGCYRQAPGKEREFVAAITGGDVRTYYADSVKGRFTISRDNAKNTVYLPMNSLKPEDTAVYFCATGPYIWPEWSPGFDYWGQGTQVTVSS,low polyreactivity
9,QVQLVESGGGLVQAGGSLRLSCAASGSTFYSYAMGWYRPAPGKERELVAAITTSGGSTYYADSVKGRFTISRDNAKNTVYLQMNSLKPEDTAVYYCNAYFIYEGGWYYKAQYDYWGQGTQVTVSS,low polyreactivity
10,QVQLVESGGGLVQAGGSLRLSCAASGSTFYSYAMGWYRQAPGKEREFVAVISWSGGRTRYADSVKGRFTISRDNAKNTVYLQMKSVKPEDTAVYYCNARKWGYSPHRKGDRHFEYWGQGTQVTVSS,low polyreactivity
11,QVQLVESGGGLVQAGGSLRLSCAASGSTFYSYAMGWYRQAPGKERELVAAISSGGSTYYADSVKGRFTISRDNAKNTGYLQMNSLKPEDTAVYYCAAKRRAKTGYRYDYWGQGTQVTVSS,high polyreactivity
12,QVQLVESGGGLVQAGGSLRLSCAASGSTFYSYAMGWYRQAPGKERELVAAITRGGSTYYADSVKGRFTISRDNAKNTVYLQMNSLKPEDTAVYYCAARPWTSASYDYWGQGTQVTVSS,low polyreactivity
13,QVQLVESGGGLVQAGGSLRLSCAASGSTFYSYAMGWYRQAPGKERELVAAITTSGVSTYYADSVKGRFTISRDNAKNTVYLQMNSLKPEDTAVYYCNAYFIYEGGWYYKAQYDYWGQGTQVTVSS,low polyreactivity
14,QVQLVESGGGLVQAGGSLRLSCAASGSTFYSYAMGWYRQAPGKERELVASITRGGSTNYADSVKGRFTISRDNAKNTVYLQMNSLKPEDTAVYYCITRGNARMDYWGQGTQVTVSS,high polyreactivity
15,QVQLVESGGGLVQAGGSLRLSCAASGSTFYSYTMGWYRQAPWKERELVATISWSGSSTYYADSVKGRFTISRDNAKNTVYLQMNSLKPEDTAVYYCAAEWDESYSYRRYRHYDYWGQGTQVTVSS,low polyreactivity
16,QVQLVESGGGLVQAGGSLRLSCAASGSTFYSYVMGGYRQAPGKERELVAAISKRGTSTYYADSVKGRFTISRDNAKYTVYLQMNSLKPEDNAVYYCAARPIVGVYPDIYDYWGHGTQVTVSS,low polyreactivity
17,QVQLVESGGGLVQAGGSLRLSCAASGSTFYTNAMGWYRQAPGKEREFVAAISGRGSNTYYADSVKGRFTISRDNAKNTVYLQMNSLKPEDTAVYYCAADFRSEHAEDYWGQGTQVTVSS,high polyreactivity
18,QVQLVESGGGLVQAGGSLRLSCAASGSTFYTNAMGWYRQAPWKERELVAAISNAVSTYYADSVKGRFTISRDNAKNTVYLQMKSLKPEDTAVYYCAADPIGLSSLWFRYSVSDVDYWGQGTQVTVSS,low polyreactivity
19,QVQLVESGGGLVQAGGSLRLSCAASGSTFYTNPMGWYRQAPGKEREFVAAISGSGSSTYADSVKGRFTISRDNAKNTVYLQMNSLKPEDTAVYYCAADWFILRTDYYWGQGTQVTVSS,low polyreactivity
20,QVQLVESGGGLVQAGGSLRLSCAASGSTFYTYAMGWYRQAPGKERELVAAISGSGGRTYYADSVKGRFTISRDNAKNTVYLQMNSLKPEDTAVYYCAAYSYRKHATGSRDMDYWGQGTQVTVSS,high polyreactivity
21,QVQLVESGGGLVQAGGSLRLSCAASGSTFYVYAMGWYRQAPGKERELVAAINFNGGGTYYADSVKGRFTISRDNAKNTVYLQMNSLKPEDTAVYYCYYLYNYWGQGTQVTVSS,low polyreactivity
22,QVQLVESGGGLVQAGGSLRLSCAASGSTFYVYAMGWYRQAPGKERELVAAISKRGGTTYYADSVKGRFTISRDNAKNTVYLQMNSLKPEDTAVYYCAADVRSPSAGYQGGYWGQGTQVTVSS,high polyreactivity

row,Sequence,polyreactivity (PSR sort gate)
1,QVQLVESGGGLVQAGGSLRLSCAASGSTFYVYAMGWYRQAPGKERELVAAITTGGSTYYADSVKGRFTISRDNAKNTVYLQMNSLKPEDTAVYYCAADDPDPYDVPSYDYWGQGTQVTVSS,low polyreactivity
2,QVQLVESGGGLVQAGGSLRLSCAASGSTFYWYAMGWYRQAPGKERELVAVITVRGGSTYYADSVKGRFTISRDNAKNTVYLQMNSLKPEDTAVYYCAAEPTSYLYKYWYDYWGEGTQVTVSS,low polyreactivity
3,QVQLVESGGGLVQAGGSLRLSCAASGSTFYWYAMGWYRQAPGKERELVDDITFSSGGTYYADSVKGRFTISRDNAKNTVYLQMNSLKPEVTADYYCATEYSLWYTRDWQRYEYWGQGTQVTVSS,high polyreactivity
4,QVQLVESGGGLVQAGGSLRLSCAASGSTFYWYTMGWYRQAPGKERELVARISSSGSTNYADSVKGRFTISRDNAKNTVYFQMNSLKPEDTAVYYCNKDWIYRGYDYWGQGTQVTVSS,high polyreactivity
5,QVQLVESGGGLVQAGGSLRLSCAASGSTFYWYTMGWYRQAPGKERELVATINYSGGSTYYADSVKGRFTISRDNAKNTVYLQMNSLKPEDTAVYYCNKQVYVGWGSDYWGQGTQVTVSS,low polyreactivity
6,QVQLVESGGGLVQAGGSLRLSCAASGSTFYYGMGWYRQAPGKERELVAAISSRGGTTYYADSVKGRFTISRDNAKNTVYLQMNSLKPEDTAVDYCAAPVPYYVPRRNEGDYWGQGTQVTVSS,low polyreactivity
7,QVQLVESGGGLVQAGGSLRLSCAASGSTFYYNAMGGYRQAPGKEWELVATITSAGRTNYADSVKGRFTISRVNAKNTDYLQMNSLKPEDTAVYYCNARYRLSRYNYWGQGTQVTVSS,low polyreactivity
8,QVQLVESGGGLVQAGGSLRLSCAASGSTFYYNAMGWYRQAPGKERELVAAISGSGGSTYYADSVKGRFTISRDNAKNTVYLQMNSLKPEDTAVYYCAALYGPGREYDYWGQGTQVTVSS,low polyreactivity
9,QVQLVESGGGLVQAGGSLRLSCAASGSTFYYNAMGWYRQAPGKERELVADISWRGGITYYADSVKGRFTISRDNAKNTVYLQMNSLKPEDTAVYYCNADAESFDDGYWGQGTQVTVSS,low polyreactivity
10,QVQLVESGGGLVQAGGSLRLSCAASGSTFYYNDMGWYRQAPGKERELVAAIRTSGSTNYADSVKGRFTISRDYAKNNVYLQMNSLKPEDTAVYYCNAVVRHWFPGWYGRGDDYWGQGTQVTVSS,low polyreactivity
11,QVQLVESGGGLVQAGGSLRLSCAASGSTFYYNTMGWYRQAPGKERELVAAISRSGGSTYYADSVKGRFTISRDNAKNTVYLQMNSLKPEDTAVYYCAARIIGARNLYGYWGQGTQVTVSS,high polyreactivity
12,QVQLVESGGGLVQAGGSLRLSCAASGSTFYYYAMGRYRQAPGKEMELVATISRGGSTNYADSVKGRFTISRDNAKNTVYLQMNSLKPEDTAVYYCAIGYLRPYGSHRESTPYDYWGEGTQVTVSS,low polyreactivity
13,QVQLVESGGGLVQAGGSLRLSCAASGSTFYYYAMGWYRQAPGKEREFVASISSRGTSTYYADSVKGPFTISRDNAKNTVYLQMNSLKPEDTAVYYCAARGWGPTRAYDYWGQGTQVTVSS,high polyreactivity
14,QVQLVESGGGLVQAGGSLRLSCAASGSTFYYYAMGWYRQAPGKERELVAAIDWSGESTYYADSVKGRFTISRDNAKNTVYLQMNSLKPEDTAVYYCAAVRSAQRWRRYYYWGQGTQVTVSS,low polyreactivity
15,QVQLVESGGGLVQAGGSLRLSCAASGSTFYYYAMGWYRQAPGKERELVAAINYNGGSTHYADSVKGRFTISRDNAKNTVYLQMISLKPEDTAVYYCAAKYRLSYTHGYWGQGSQVTVSS,low polyreactivity
16,QVQLVESGGGLVQAGGSLRLSCAASGSTFYYYAMGWYRQAPGKERELVAAISGGGNTKYADSVKGRFTISRDNAKNTVYLQMNSLKPEDTAVYYCAARLAYWYYYAWRGPYYYWGQGPQVTVSS,high polyreactivity
17,QVQLVESGGGLVQAGGSLRLSCAASGSTFYYYAMGWYRQAPGKERELVAAISRGGSTYYADSVKGRFTISRDNAKNTVYLQMNSLKPEDTAVYYCAVDARPYRQIYLYEYWGQGTQVTVSS,low polyreactivity
18,QVQLVESGGGLVQAGGSLRLSCAASGSTFYYYAMGWYRQAPGKERELVAAITLRGTSTYYADSVKGRFTISRDNAKNTVYLQMNRLKPEDTAVYYCAVETYYSIFDIYDYWGQGTQVTVSS,low polyreactivity
19,QVQLVESGGGLVQAGGSLRLSCAASGSTFYYYAMGWYRQAPGKERELVASIRSRDGSTRYADSVKGRFTISRDNAKNTVYLQMNSLKPEDTAVYYCAAVGYRRVDAGSSASRYDYWGQGTQVTVSS,high polyreactivity
20,QVQLVESGGGLVQAGGSLRLSCAASGSTFYYYAMGWYRQAPGKERELVAVITFSGGSTNYADSVKGRFTISRDNAKNTVYLQMNSLKPEDTAVYYCAADTYSYRYSNDYWGQGTQVTVSS,low polyreactivity
21,QVQLVESGGGLVQAGGSLRLSCAASGSTFYYYAMGWYRQAPGKESELVAAISPSGDSTYNADSVKGRFTISRENSKNTVYLQMNSLKPEDTAVYYFAAQYYFYPQEFDDWGQGTQVTVSS,low polyreactivity
